Measured values: US20020026033A1 (BOARD OF REGENTS OF THE UNIVERSITY OF OKLAHOMA, published 2002)
Ends that are not written are not given here. * marks the point of attachment. sulfate = O=S(=O)(O)*

Biological target: T1, recombinant soluble P-selectin (sPS) (UniProt P16109 42-771, limits assumed)
T1 construct: Neither the residues nor the species are stated
T1 sequence (looked up): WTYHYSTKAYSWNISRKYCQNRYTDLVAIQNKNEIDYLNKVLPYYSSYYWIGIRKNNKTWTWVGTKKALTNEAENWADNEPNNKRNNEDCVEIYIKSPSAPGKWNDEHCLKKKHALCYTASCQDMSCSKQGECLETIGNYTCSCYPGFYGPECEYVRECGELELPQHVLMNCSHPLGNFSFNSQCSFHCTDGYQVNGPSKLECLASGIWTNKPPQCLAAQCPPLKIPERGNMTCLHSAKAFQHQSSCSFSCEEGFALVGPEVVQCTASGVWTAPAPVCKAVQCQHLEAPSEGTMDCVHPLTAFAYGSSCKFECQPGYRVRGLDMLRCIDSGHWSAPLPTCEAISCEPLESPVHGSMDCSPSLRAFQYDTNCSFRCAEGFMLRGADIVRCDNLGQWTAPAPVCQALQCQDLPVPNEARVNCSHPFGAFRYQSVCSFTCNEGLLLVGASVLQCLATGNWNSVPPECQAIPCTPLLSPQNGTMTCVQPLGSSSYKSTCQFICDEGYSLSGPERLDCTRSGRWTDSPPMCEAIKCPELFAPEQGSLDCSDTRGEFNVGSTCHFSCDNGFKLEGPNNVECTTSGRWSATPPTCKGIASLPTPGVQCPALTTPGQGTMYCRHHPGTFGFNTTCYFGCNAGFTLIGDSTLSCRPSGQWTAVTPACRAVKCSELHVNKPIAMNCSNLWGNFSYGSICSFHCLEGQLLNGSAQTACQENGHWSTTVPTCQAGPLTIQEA
Test: equilibrium gel filtration; fluid-phase sPS (25-1000 pmol) on columns equilibrated with 35SO3-GSP-6 in Ca2+-containing buffer
Method: Equilibrium gel filtration experiments were conducted in a Sephadex G-75 column (0.5×10 cm, 2 ml) equilibrated with 4 ml of 20 mM MOPS, pH 7.5, containing 150 mM NaCl, 2 mM CaCl₂, 2 mM MgCl₂, and 0.02% NaN₃ (buffer A), and ³⁵SO₃-GSP-6 (10,000 cpm/ml, specific activity 1700 cpm/pmol). Different amounts of soluble P-selectin (sPS) (25-1000 pmol) (Ushiyama et al., J. Biol. Chem., 268:15229-15237, 1993) were preincubated for 30-60 min in 120 μl of buffer A containing ³⁵SO₃-GSP-6 and applied to the column. Samples were eluted with buffer A (including ³⁵SO₃-GSP-6), and 140 μl fractions were collected at a flow rate of 70 μl/min. Radioactivity in the fractions was determined by liquid scintillation counting. Control experiments to test inhibitors of binding between sPS and GSP-6 were performed using 400 pmol of sPS and 5,000 cpm/ml of ³⁵SO₃-GSP-6. The EDTA concentration was 1 mM in 20 mM MOPS, pH 7.5, 150 mM NaCl, 0.02% NaN₃. Anti-P-selectin monoclonal antibodies (G1 and S12) (800 pmol each) were preincubated for 30 min with sPS in buffer A before ³⁵SO₃-GSP-6 was added. Elution was performed by using buffer A with ³⁵SO₃-GSP-6.
The dissociation constant (Kd) for binding of GSP-6 to soluble sPS was determined using an equilibrium gel filtration technique. […]

B1: glycosulfopeptide-6 (GSP-6) (peptide)
peptide: GQATEY(sulfate)EY(sulfate)LDY(sulfate)DFLPETEPPEML
modifications: also: core-2 O-glycan with sialyl Lewis x on a Thr, position not given here
notes: range 42-63; Synthetic glycosulfopeptide; also called 35SO3-GSP-6; 35SO3-glycosulfopeptide-6
  Kd: ~350 nM
